Broadly, the IC50 is the concentration that inhibits the measured activity by half.

The data set relates to c-Jun;c-Fos (;). As to the kind of experiment: EMSA. The settings on record: EMSA: 10 mM Tris-HCl pH 7.5, 50 mM NaCl, 5 mM MgCl2, 20 min at 37 C, then 20 min with DNA, 5% native TBE-PAGE at 4 C. (In general: Mobility shift assays separate free from complexed probe on a gel.)

AP-1 oligonucleotide: the IC50 (reduced APE1 + inhibitor C10 (IC50 of the compound, not of DNA)) worked out at 17 µM and the IC50 (reduced APE1 + inhibitor E3330 (IC50 of the compound, not of DNA)) was 36 µM.

The values are drawn from paper PMC5381946 (PLoS Pathogens, 2017).
